± gives the standard deviation of the averaged measurements.

For 116 sequences, protein stability index results are on record in the supplement of paper PMC10724198.
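Further: PSI is a weighted mean of sequencing reads over stability bins, variants kept only with over 10 reads, mCherry proximal and sfGFP distal, peptide attached via GGGS linker.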

This series deals with Saccharomyces cerevisiae. As to the kind of experiment: protein stability index of tFT-peptide fusion (C-terminal peptide) (PSI (0-1 scale)); higher = more stable (slower turnover). The following applies: genetic background: wild type; temperature: 30 C.
As for TFINVHRFCSAI, the protein stability index was determined as 0.647 ± 0.024.

Sequence TFISNYSCILSL registered a protein stability index of 0.644 ± 0.013.

The sequence TFPSADLYYSLL yielded a protein stability index of 0.74 ± 0.049.

TFSIACIPSSHK: the protein stability index turned out to be 0.652 ± 0.025.

TFTSTTLARPFS came in with a protein stability index of 0.831 ± 0.036.

As for TGAGGPGPRNRK, the protein stability index is 0.774 ± 0.064.

The sequence TGKHDIAQEQTK returned a protein stability index of 0.679 ± 0.028.

With TGLLGLVGSQVP, the protein stability index is 0.67 ± 0.016.

In turn, TGMYHSQPYPAA showed a protein stability index of 0.677 ± 0.0071.

TGRERLAEGDWR returned a protein stability index of 0.692 ± 0.019.

Consider TGRWRWMRDLLS, for which the protein stability index is 0.63 ± 0.032.

Sequence TGVFFPPQLPLP gave a protein stability index of 0.69 ± 0.023.

TGWASWVSVCLI gave a protein stability index of 0.5587 ± 0.00094.

TGWLRLLHAASG yielded a protein stability index of 0.656 ± 0.045.

Sequence TGWWSPCRLDSS yielded a protein stability index of 0.722 ± 0.024.

In the case of THLPLPPPPPLL, the protein stability index amounted to 0.655 ± 0.022.

In turn, THPFLRTHPPVE gave a protein stability index of 0.714 ± 0.097.

THPPPGPHPSAA: the protein stability index was determined as 0.717 ± 0.017.

THSGRVRIVSFL yielded a protein stability index of 0.654 ± 0.12.

For the sequence THTDQKTNHRRQ, the protein stability index was 0.69 ± 0.05.

With TIAETIGCEKII, the protein stability index is 0.785 ± 0.099.

Sequence TIETDIYAIARV showed a protein stability index of 0.659 ± 0.041.

Sequence TIGREENKIANI showed a protein stability index of 0.651 ± 0.016.

As to TILKLLSEELDK, the protein stability index came to 0.613 ± 0.025.

Consider TISVNLYLPDLL, for which the protein stability index was 0.677 ± 0.057.

For the sequence TKDRIIMKKKKE, the protein stability index is 0.7214 ± 0.0031.

The sequence TKHCRFCKSGFV registered a protein stability index of 0.7133 ± 0.0063.

As for TKIPVLLKNSAN, the protein stability index was 0.704 ± 0.062.

As for TKIQFTITLIGK, the protein stability index stood at 0.578 ± 0.028.

Consider TKKKNKLRNKQE, for which the protein stability index was found to be 0.664 ± 0.048.

The sequence TKKKRKKKNTKK yielded a protein stability index of 0.685 ± 0.061.

TKKNKTKKGQNK showed a protein stability index of 0.7099 ± 0.006.

Regarding TKRQKEKKKNKE, the protein stability index amounted to 0.735 ± 0.042.

Consider TLCFRLGFLSYF, for which the protein stability index was found to be 0.604 ± 0.091.

Consider TLDGGESSVVAV, for which the protein stability index is 0.685 ± 0.025.

Turning to TLESRPALVFFS, the protein stability index came out at 0.681 ± 0.0088.

As to TLGTSPPPAYLS, the protein stability index stood at 0.638 ± 0.013.

In turn, TLPDSSSTSPNL displayed a protein stability index of 0.696 ± 0.063.

TLPVPLPSVSHS: the protein stability index was found to be 0.685 ± 0.0098.

The sequence TLSHPANNKNNL came in with a protein stability index of 0.681 ± 0.047.

The sequence TLSPAPPPPLPP displayed a protein stability index of 0.636 ± 0.093.

With TLSSGREVVGRW, the protein stability index was determined as 0.576 ± 0.012.

For TLTLVIPTSRDQ, the protein stability index is 0.717 ± 0.064.

Regarding TLWENEKNNKHG, the protein stability index is 0.705 ± 0.024.

For the sequence TMLLPPPNLATI, the protein stability index was determined as 0.71 ± 0.026.

As for TMRSVSLRSVAS, the protein stability index worked out at 0.675 ± 0.022.

On to TMVAVTSILGGL, for which the protein stability index turned out to be 0.655 ± 0.084.

In the case of TNIITRHNKKDK, the protein stability index came out at 0.657 ± 0.078.

TNTEEKRKIRRS: the protein stability index came to 0.697 ± 0.11.

TPAYTETNGLST had a protein stability index of 0.73 ± 0.042.

The sequence TPDLNLYSKVYG gave a protein stability index of 0.695 ± 0.048.

TPEQMKIKRNVE yielded a protein stability index of 0.69 ± 0.009.

For TPFVPLAPLPRS, the protein stability index was 0.728 ± 0.056.

As for TPGMCDRQFGVD, the protein stability index was found to be 0.685 ± 0.028.

TPHQPPPPRPSP returned a protein stability index of 0.7057 ± 0.0037.

TPIAGGAKLFHV returned a protein stability index of 0.646 ± 0.058.

For the sequence TPKTRPRSRAVK, the protein stability index was 0.748 ± 0.015.

In turn, TPKWRRRLNQGL returned a protein stability index of 0.719 ± 0.032.

Turning to TPPLPLPSPPCP, the protein stability index was determined as 0.7249 ± 0.0035.

Sequence TPPLPPSLSPTH had a protein stability index of 0.708 ± 0.0085.

TPPPHNRTKTTT: the protein stability index came to 0.682 ± 0.072.

Regarding TPPPNTPSPLTI, the protein stability index is 0.654 ± 0.033.

TPPSHTVGIWAS: the protein stability index amounted to 0.683 ± 0.039.

For TPRTRPFNPPPR, the protein stability index came to 0.729 ± 0.023.

The sequence TPSIFNRTNGPK returned a protein stability index of 0.738 ± 0.043.

Take TPTSLPGPRVLS: the protein stability index turned out to be 0.6596 ± 0.0054.

As to TQEQVQKKLLKS, the protein stability index was determined as 0.665 ± 0.015.

In turn, TQLEHQRESKSI registered a protein stability index of 0.672 ± 0.021.

For TQNYPSAFAIPA, the protein stability index is 0.552 ± 0.043.

In turn, TRDEGWSSAARK yielded a protein stability index of 0.637 ± 0.062.

Regarding TRETKKSIKKQN, the protein stability index turned out to be 0.673 ± 0.058.

Turning to TRFCDFTSSVTT, the protein stability index was found to be 0.711 ± 0.041.

In the case of TRGRGDGQLDSA, the protein stability index was 0.699 ± 0.024.

Take TRGRGLSGGRFF: the protein stability index was found to be 0.658 ± 0.037.

The sequence TRNGQKVGGVGA returned a protein stability index of 0.725 ± 0.029.

Regarding TRNNDKQTDTIV, the protein stability index was 0.729 ± 0.048.

With TRPGKRNGRPPR, the protein stability index amounted to 0.6995 ± 0.0008.

Sequence TRPSGSFLALPP registered a protein stability index of 0.685 ± 0.05.

The sequence TRPTQNKQIKNI displayed a protein stability index of 0.6141 ± 0.0032.

As for TRRLILSPIRHF, the protein stability index turned out to be 0.636 ± 0.015.

In turn, TRSISPGTFWTS gave a protein stability index of 0.723 ± 0.018.

In turn, TRSSHSHLETFV returned a protein stability index of 0.684 ± 0.03.

Turning to TSGLGYVDCPKL, the protein stability index came out at 0.709 ± 0.033.

With TSGNSTALKMGR, the protein stability index came out at 0.741 ± 0.059.

Consider TSIDRLLIRYEK, for which the protein stability index was determined as 0.649 ± 0.12.

The sequence TSKHLTQRKESK displayed a protein stability index of 0.659 ± 0.0082.

Regarding TSKRRRWGTTRK, the protein stability index is 0.672 ± 0.074.

Consider TSPQHPWPPAPL, for which the protein stability index was determined as 0.694 ± 0.06.

TSPSPPPTPCRS returned a protein stability index of 0.702 ± 0.018.

Sequence TSPTPFVSCSLP gave a protein stability index of 0.629 ± 0.044.

In the case of TSPVPPSTPAPP, the protein stability index came out at 0.6686 ± 0.0045.

As for TSRNFPGLHDNY, the protein stability index was determined as 0.673 ± 0.052.

The sequence TSVAYVWRLFTE gave a protein stability index of 0.597 ± 0.016.

Turning to TSYEAKKKWQVI, the protein stability index was 0.645 ± 0.025.

In turn, TSYNLPAAPHPV gave a protein stability index of 0.679 ± 0.037.

TTKNTSIKTKLK gave a protein stability index of 0.67 ± 0.026.

In turn, TTKTGQVEIYKV came in with a protein stability index of 0.661 ± 0.033.

The sequence TTLSMYFCMCVL registered a protein stability index of 0.638 ± 0.14.

On to TTNGGPGNGAQN, for which the protein stability index worked out at 0.66543 ± 0.00044.

In the case of TTNLDKKILKTS, the protein stability index was 0.6525 ± 0.0022.

For the sequence TTPPFVSALPLS, the protein stability index is 0.71142 ± 0.00043.

TTPTAPCLSSHD displayed a protein stability index of 0.69 ± 0.042.

The sequence TTRLARNEQVKR had a protein stability index of 0.62 ± 0.1.

On to TVAPNFIPTSTS, for which the protein stability index is 0.662 ± 0.044.

TVFPPLPTLPCV returned a protein stability index of 0.792 ± 0.1.

In the case of TVLRMFPPRSIW, the protein stability index worked out at 0.67 ± 0.046.

TVPAKQHLSGYE returned a protein stability index of 0.679 ± 0.011.

In turn, TVQPGAVRFILF yielded a protein stability index of 0.703 ± 0.028.

Sequence TVRKMEKKKDGG had a protein stability index of 0.663 ± 0.012.

In the case of TVVVGHSRLVVG, the protein stability index was 0.703 ± 0.027.

As for TVYSPAYSIIHQ, the protein stability index worked out at 0.584 ± 0.053.

For the sequence TWGACGKMLSDR, the protein stability index was 0.682 ± 0.026.

As to TWIEGGVDRQRG, the protein stability index stood at 0.683 ± 0.074.

The sequence TWIKVPVERTRP yielded a protein stability index of 0.683 ± 0.053.

For the sequence TYIRRTICGVLS, the protein stability index was 0.587 ± 0.021.

In the case of TYLCLLVRDNRG, the protein stability index turned out to be 0.706 ± 0.012.
